Peptide text beside a SMILES is read from it.
B1: HIF2α-CODD A530T peptide (peptide, UniProt Q99814 523-542, looked up)
peptide: Ac-ELDLETLTPYIPMDGEDFQL-NH2
notes: HIF2α (EPAS1) CODD peptide, human, as m3 with the disease mutation A530T (Class 1); also called HIF2α A530T; source: synthetic peptide (Genscript, ≥95% purity)
B2: HIF2α-CODD M535I peptide (peptide, UniProt Q99814 523-542, looked up)
peptide: Ac-ELDLETLAPYIPIDGEDFQL-NH2
notes: HIF2α (EPAS1) CODD peptide, human, as m3 with the disease mutation M535I (Class 2); also called HIF2α M535I; source: synthetic peptide (Genscript, ≥95% purity)
B3: HIF2α-CODD P534R peptide (peptide, UniProt Q99814 523-542, looked up)
peptide: Ac-ELDLETLAPYIRMDGEDFQL-NH2
notes: HIF2α (EPAS1) CODD peptide, human, as m3 with the disease mutation P534R (Class 2); also called HIF2α P534R; source: synthetic peptide (Genscript, ≥95% purity)

The molecules below were run against T1, PHD2 (prolyl-hydroxylase domain, residues 181–426) (Homo sapiens, UniProt Q9GZT9) (assay: Microscale thermophoresis (MST) binding of HIFα-CODD peptides to the catalytic domain of PHD2). Conditions: MST, with NOG.
T1 construct: encodes for His6-PHD2 (prolyl-hydroxylase domain, residues 181–426); His6 (N, cleaved yes); made in house; host or cells: E. coli BL21(DE3)
Procedure: To determine if there is a direct effect of HIF2α mutations on PHD2 binding, we devised a quantitative method for determining the dissociation constant (Kd) of the HIF2α-CODD peptides and the catalytic domain of PHD2 using microscale thermophoresis (MST)[13],[14] in the presence of the PHD inhibitor n-oxalylglycine (NOG) to inhibit reaction turnover.
PHD2 was purified via a previously described but modified procedure[4],[30]. […] Cells were grown to an OD600 of 0.8 at 37 °C and expression of His6-PHD2 was induced with a final concentration of 0.5 mM IPTG. Cells were grown for an additional 3 h post-induction at 37 °C and harvested via centrifugation. Cell pellets were either used immediately for purification or stored at −80 °C for later use. Cell pellets were resuspended in Lysis Buffer (50 mM Tris–HCl pH 7.9, 500 mM NaCl, 5 mM Imidazole) containing 1x SigmaFast protease inhibitor cocktail (Sigma-Aldrich) and lysed with 3 passes through an Emulsiflex-C3 cell disruptor (Avestin) at 20-30 kPSI. […] Clarified lysates were applied to a 2 ml Ni-NTA (Thermo Scientific) column pre-equilibrated with Lysis Buffer. The beads were washed with 10 ml Lysis buffer and 2 × 30 ml of Wash Buffer (50 mM Tris–HCl pH 7.9, 500 mM NaCl, 30 mM Imidazole). His6-PHD2 was eluted by applying 10 ml Elution Buffer (50 mM Tris–HCl pH 7.9, 500 mM NaCl, 1 M Imidazole) to the column. Ni-NTA purified His6-PHD2 was dialyzed using a 10 kDa cut-off dialysis membrane against 2 L of Dialysis Buffer (50 mM Tris–HCl pH 7.5) for 4 h at 4 °C. […] Dialysis and thrombin cleavage were allowed to continue overnight at 4 °C. Thrombin-cleaved PHD2 was collected and applied to a 2 ml Ni-NTA column pre-equilibrated with Dialysis Buffer to remove uncleaved protein and cleaved His6 tags. The flow-through was collected and the beads were washed with 10 ml of Dialysis Buffer supplemented with 5 mM imidazole. The 5 mM imidazole eluate was pooled with the flow through and concentrated with an Amicon 10 kDa cut-off centrifugal concentrator (Millipore) to a volume of ~600 µl. The concentrated PHD2 was then applied to a Superdex 75 Increase 10/300 GL column (Cytiva) equilibrated with Dialysis Buffer or Labeling Buffer (50 mM HEPES pH 7.5, 150 mM NaCl) depending on the intended use of the sample. Eluted fractions containing PHD2 were collected and pooled. For the His6-PHD2 used in the indirect hydroxylation assay, no thrombin was added during dialysis steps therefore the His6-tag was not removed and the subsequent passage of the sample through Ni-NTA beads to remove His6-tags was not performed. Otherwise, the purification protocol for His6-PHD2 is the same as thrombin-cleaved PHD2. All purification steps were analyzed by SDS–PAGE and the Superdex 75 Increase chromatogram was used to assess size and aggregation, see Supplementary Fig. 5 for a representative purification assessment.
Labeling was conducted at room temperature for 1 h in the dark. Excess dye was then removed first by the passage of the sample through a PD-10 desalting column containing Sephadex G-25 resin (Cytiva) equilibrated with Dialysis Buffer and then any remaining excess dye was removed via repeated 10-fold dilution in Dialysis Buffer and subsequent concentration in an Amicon 10 kDa cut off centrifugal filter until the dye could no longer be detected in the concentrator flow through by Absorbance at 650 nm.
MST measurements were taken using a Monolith NT.115 (Nanotemper Technologies) at room temperature using standard MST capillaries (Nanotemper Technologies). […] For each HIFα-CODD peptide, ~1 mg dry weight of peptide was dissolved in 200 µl of 50 mM Tris–HCl pH 8.0 and concentrations were measured using UV absorbance at 280 nm for most peptides and BCA assay (Thermo Scientific) for Y532C and Y532H peptides using known concentrations of the WT HIF2α-CODD peptide to create a standard curve.

T1 sequence (Q9GZT9 181-426): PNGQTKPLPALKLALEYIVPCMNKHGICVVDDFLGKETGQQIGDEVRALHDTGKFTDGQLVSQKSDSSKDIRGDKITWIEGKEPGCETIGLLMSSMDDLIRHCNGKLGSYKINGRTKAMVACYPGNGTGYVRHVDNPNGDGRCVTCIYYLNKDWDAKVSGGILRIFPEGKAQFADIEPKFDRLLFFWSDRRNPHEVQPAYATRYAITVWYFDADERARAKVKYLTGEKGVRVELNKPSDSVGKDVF

Molecule	PHD2 affinity / Kd compared with another peptide (in words)
CC[C@H](C)[C@H](NC(=O)[C@H](Cc1ccc(O)cc1)NC(=O)[C@@H]1CCCN1C(=O)[C@@H](NC(=O)[C@H](CC(C)C)NC(=O)[C@@H](NC(=O)[C@H](CCC(=O)O)NC(=O)[C@H](CC(C)C)NC(=O)[C@H](CC(=O)O)NC(=O)[C@H](CC(C)C)NC(=O)[C@H](CCC(=O)O)NC(C)=O)[C@@H](C)O)[C@@H](C)O)C(=O)N1CCC[C@H]1C(=O)N[C@@H](CCSC)C(=O)N[C@@H](CC(=O)O)C(=O)NCC(=O)N[C@@H](CCC(=O)O)C(=O)N[C@@H](CC(=O)O)C(=O)N[C@@H](Cc1ccccc1)C(=O)N[C@@H](CCC(N)=O)C(=O)N[C@@H](CC(C)C)C(N)=O [HIF2α A530T]	significant effect on PHD2 binding affinity
CC[C@H](C)[C@H](NC(=O)[C@H](Cc1ccc(O)cc1)NC(=O)[C@@H]1CCCN1C(=O)[C@H](C)NC(=O)[C@H](CC(C)C)NC(=O)[C@H](CCSC)NC(=O)[C@H](CCC(=O)O)NC(=O)[C@H](CC(C)C)NC(=O)[C@H](CC(=O)O)NC(=O)[C@H](CC(C)C)NC(=O)[C@H](CCC(=O)O)NC(C)=O)C(=O)N1CCC[C@H]1C(=O)N[C@@H](CCSC)C(=O)N[C@@H](CC(=O)O)C(=O)NCC(=O)N[C@@H](CCC(=O)O)C(=O)N[C@@H](CC(=O)O)C(=O)N[C@@H](Cc1ccccc1)C(=O)N[C@@H](CCC(N)=O)C(=O)N[C@@H](CC(C)C)C(N)=O [HIF2α T528M] (Ac-ELDLEMLAPYIPMDGEDFQL-NH2)	intermediate affinity
CC[C@H](C)[C@H](NC(=O)[C@H](Cc1c[nH]cn1)NC(=O)[C@@H]1CCCN1C(=O)[C@H](C)NC(=O)[C@H](CC(C)C)NC(=O)[C@@H](NC(=O)[C@H](CCC(=O)O)NC(=O)[C@H](CC(C)C)NC(=O)[C@H](CC(=O)O)NC(=O)[C@H](CC(C)C)NC(=O)[C@H](CCC(=O)O)NC(C)=O)[C@@H](C)O)C(=O)N1CCC[C@H]1C(=O)N[C@@H](CCSC)C(=O)N[C@@H](CC(=O)O)C(=O)NCC(=O)N[C@@H](CCC(=O)O)C(=O)N[C@@H](CC(=O)O)C(=O)N[C@@H](Cc1ccccc1)C(=O)N[C@@H](CCC(N)=O)C(=O)N[C@@H](CC(C)C)C(N)=O [HIF2α Y532H] (Ac-ELDLETLAPHIPMDGEDFQL-NH2)	near wild-type affinity
HIF2α Y532C: Class 1 mutant HIF2α-CODD peptide (Ac-ELDLETLAPCIPMDGEDFQL-NH2)	strongly detrimental to the interaction of PHD2 with HIF2α-CODD

Same assay, conditions: MST; 25 nM Alexa 647-labeled PHD2, Tris–HCl with NOG (1 mM NOG, 10 µM FeSO4, 5 mg/ml BSA in 2x MST Buffer pH 7.5), peptide in Tris pH 8.0, room temperature, 10 min incubation; 1:1 Kd model; triplicate measurements; highest concentration omitted for Y532H and P531A (aggregation)

Kd (MST-determined PHD2/HIFα-CODD complex dissociation constant)	Molecule
No binding	HIF2α L529P: Class 1 mutant HIF2α-CODD peptide (Ac-ELDLETPAPYIPMDGEDFQL-NH2)
No binding	HIF2α P531L: Class 1 mutant HIF2α-CODD peptide (Ac-ELDLETLALYIPMDGEDFQL-NH2)
No binding	HIF2α P531S: Class 1 mutant HIF2α-CODD peptide (Ac-ELDLETLASYIPMDGEDFQL-NH2)

Same assay, conditions: MST; target WT-PHD2(181-426), TargetConcentration 2.5e-8; ligand HIF2a-CODD peptide; MST-Power Medium, Excitation-Power 20 Nano - RED; hot region 19 to 20; unit of Kd not printed (doses of the same sheet are in M); Fig. 1c source data

Kd (Fit Results, Fit Model Kd)	Molecule
0.01043	HIF2α L529P: Class 1 mutant HIF2α-CODD peptide (Ac-ELDLETPAPYIPMDGEDFQL-NH2)
0.01316	HIF2α P531S: Class 1 mutant HIF2α-CODD peptide (Ac-ELDLETLASYIPMDGEDFQL-NH2)

Same assay, conditions: fold of the HIF2α WT Kd, MST

Kd relative to WT HIF2α-CODD [× WT]	Molecule
2.4	CC[C@H](C)[C@H](NC(=O)[C@H](Cc1ccc(O)cc1)NC(=O)[C@@H]1CCCN1C(=O)[C@H](C)NC(=O)[C@H](CC(C)C)NC(=O)[C@@H](NC(=O)[C@H](CCC(=O)O)NC(=O)[C@H](CC(C)C)NC(=O)[C@H](CC(=O)O)NC(=O)[C@H](CC(C)C)NC(=O)[C@H](CCC(=O)O)NC(C)=O)[C@@H](C)O)C(=O)N1CCC[C@H]1C(=O)N[C@@H](CCSC)C(=O)N[C@@H](CC(=O)O)C(=O)N[C@@H](Cc1c[nH]c2ccccc12)C(=O)N[C@@H](CCC(=O)O)C(=O)N[C@@H](CC(=O)O)C(=O)N[C@@H](Cc1ccccc1)C(=O)N[C@@H](CCC(N)=O)C(=O)N[C@@H](CC(C)C)C(N)=O [HIF2α G537W] (Ac-ELDLETLAPYIPMDWEDFQL-NH2)
1.2	CC[C@H](C)[C@H](NC(=O)[C@H](Cc1c[nH]cn1)NC(=O)[C@@H]1CCCN1C(=O)[C@H](C)NC(=O)[C@H](CC(C)C)NC(=O)[C@@H](NC(=O)[C@H](CCC(=O)O)NC(=O)[C@H](CC(C)C)NC(=O)[C@H](CC(=O)O)NC(=O)[C@H](CC(C)C)NC(=O)[C@H](CCC(=O)O)NC(C)=O)[C@@H](C)O)C(=O)N1CCC[C@H]1C(=O)N[C@@H](CCSC)C(=O)N[C@@H](CC(=O)O)C(=O)NCC(=O)N[C@@H](CCC(=O)O)C(=O)N[C@@H](CC(=O)O)C(=O)N[C@@H](Cc1ccccc1)C(=O)N[C@@H](CCC(N)=O)C(=O)N[C@@H](CC(C)C)C(N)=O [HIF2α Y532H] (Ac-ELDLETLAPHIPMDGEDFQL-NH2)

The molecules below were run against T2, Alexa 647 labeled PHD2 (catalytic / prolyl-hydroxylase domain, residues 181-426) (human, UniProt Q9GZT9 181-426, Alexa Fluor 647 N-hydroxysuccinimide ester dye, 1-2 dye molecules per protein molecule) (assay: MST; 25 nM Alexa 647 labeled PHD2, unlabeled peptide in 16 two-fold dilutions; room temperature; MST Buffer 50 mM Tris-HCl pH 7.5, 1 mM NOG, 10 µM FeSO4, 5 mg/ml BSA mixed 1:1 with peptide in 50 mM Tris-HCl pH 8.0; 1:1 Kd model; triplicate). Conditions: both partners purified.
T2 construct: PHD2, prolyl-hydroxylase domain (catalytic domain), residues 181-426, from pET-46-HIS6-PHD2; Same construct as m2, dye-labeled for MST; also called PHD2-647; source: E. coli BL21(DE3), purified (Ni-NTA, thrombin cleavage, Superdex 75), labeled with Alexa Fluor 647 NHS ester
T2 sequence (Q9GZT9 181-426): as the sequence (Q9GZT9 181-426) above

Kd [µM]	Molecule
627 ± 126	B1
154 ± 17	B2
153 ± 10	B3

Reference: paper PMC10902354, “Deficiency in PHD2-mediated hydroxylation of HIF2α underlies Pacak-Zhuang syndrome” (Communications Biology, 2024)
